Measurements reported in US20250382344A1, “Soluble GLP1/GIP/NPY2 Receptor Triple Agonists” (Boehringer Ingelheim International GmH, priority 2024, published 2025).
*1 amine or outer side, *2 acyl side, *3 side chain or, on linkers, in order; H or OH if unused. Where no end group is shown, it is not given here. Side-chain parts run from the residue outwards. [ ]: non-standard residue; d: D form. The star is where a group is joined. C20 diacid = O=C(O)CCCCCCCCCCCCCCCCCCC(=O)*; γGlu = O=C(O)[C@H](CCC(=O)[*:2])N[*:1]; Aib = CC(C)(N)C(=O)O

T1: human GIP receptor (human, UniProt P48546 22-466)
T1 sequence (looked up): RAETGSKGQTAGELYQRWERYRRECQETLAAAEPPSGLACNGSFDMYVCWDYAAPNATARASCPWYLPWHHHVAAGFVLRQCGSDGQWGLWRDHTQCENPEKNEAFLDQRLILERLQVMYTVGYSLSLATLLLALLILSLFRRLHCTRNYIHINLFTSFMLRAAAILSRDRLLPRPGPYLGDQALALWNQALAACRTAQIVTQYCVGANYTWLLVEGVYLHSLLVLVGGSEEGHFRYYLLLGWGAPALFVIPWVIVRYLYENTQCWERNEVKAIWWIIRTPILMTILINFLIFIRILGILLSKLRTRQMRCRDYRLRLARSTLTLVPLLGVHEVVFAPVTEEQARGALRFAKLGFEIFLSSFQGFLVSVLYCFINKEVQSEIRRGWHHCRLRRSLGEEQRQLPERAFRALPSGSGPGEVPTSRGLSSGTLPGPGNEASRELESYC

T2: human neuropeptide Y2 receptor (human, UniProt P49146 1-381)
T2 sequence (looked up): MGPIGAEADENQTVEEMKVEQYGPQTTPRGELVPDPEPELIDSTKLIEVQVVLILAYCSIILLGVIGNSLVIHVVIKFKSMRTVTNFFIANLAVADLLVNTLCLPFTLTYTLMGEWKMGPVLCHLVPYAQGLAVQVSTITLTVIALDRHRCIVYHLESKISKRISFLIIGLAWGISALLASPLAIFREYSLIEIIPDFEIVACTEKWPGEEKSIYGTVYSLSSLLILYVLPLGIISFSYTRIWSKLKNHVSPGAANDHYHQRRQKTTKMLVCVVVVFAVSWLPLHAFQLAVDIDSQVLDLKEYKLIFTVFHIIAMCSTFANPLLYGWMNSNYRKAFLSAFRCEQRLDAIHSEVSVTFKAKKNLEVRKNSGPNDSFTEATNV


Experiments:
Assay in all cases: cell-based or functional assay
human GLP-1 receptor = human GLP-1 receptor (human, UniProt P43220 24-463)
human GIP receptor = target: T1, human GIP receptor
[1] = target: T2, human neuropeptide Y2 receptor

Row | Binder | EC50, CreLuc reporter, 0.5% hP (human GLP-1 receptor) | EC50, CreLuc reporter, 100% hP (human GLP-1 receptor) | EC50, CreLuc reporter, 0.5% hP (human GIP receptor) | EC50, CreLuc reporter, 100% hP (human GIP receptor) | EC50, CreLuc reporter, 0.5% hP [1] | EC50, CreLuc reporter, 100% hP [1]
1 | YXEGTFTSDLSIXLEKQAQXAFIRHLINKXTRQRY (Aib at 2, 13, 20, 30; Lys29 epsilon-amino acylated with C20DA-gGlu-gGlu-gGlu-gGlu-gGlu-gGlu-eLys; C-terminal amide) [Compound 21] | 4.8 nM | 13.9 nM | 0.2 nM | 5.6 nM | 6.5 nM | 111 nM
2 | YXEGTFTSDYSIXLDKQAQXAFIRHLINKXTRQRY (Aib at 2, 20, 30; aMeL at 13; Lys29 epsilon-amino acylated with C20DA-gGlu-gGlu-gGlu-gGlu-gGlu-gGlu-eLys; C-terminal amide) [Compound 22] | 0.2 nM | 0.6 nM | 0.1 nM | – | 8.8 nM | 72 nM
3 | Y[Aib]EGTFTSDYSI[Aib]LEKQAQ[Aib]AFVRHLINK([γGlu-γGlu-γGlu-γGlu-γGlu-γGlu-C20 diacid])[Aib]TRQRY-NH2 [Compound 3] | 3 nM | 13.9 nM | 0.7 nM | – | 37.9 nM | 147 nM
4 | YXEGTFTSDYSIXLEKQAQXAFVRHLINKLTRQRY (Aib at 2, 13, 20; Lys29 epsilon-amino acylated with C20DA-gGlu-gGlu-gGlu-gGlu-gGlu-gGlu-eLys; C-terminal amide) [Compound 27] | – | 20.8 nM | 0.6 nM | 16.3 nM | – | 69.1 nM
5 | YXEGTFTSDYSIXLEKEAQXAFVRHLINKXTRQRY (Aib at 2, 13, 20, 30; Lys29 epsilon-amino acylated with C20DA-gGlu-gGlu-gGlu-gGlu-gGlu-gGlu-eLys; C-terminal amide) [Compound 28] | 8 nM | 14.8 nM | 19.3 nM | 208 nM | 24 nM | 297 nM
6 | YXEGTFTSDYSIXLDKIAQXAFVRHLINKXTRQRY (Aib at 2, 13, 20, 30; Lys29 epsilon-amino acylated with C18DA-gGlu-gGlu-gGlu-gGlu-gGlu-gGlu-eLys; C-terminal amide) [Compound 33] | 0.1 nM | 1 nM | 0.7 nM | 18.7 nM | – | –
7 | YXEGTFTSDYSIXLEKQEQXAFVRHLINKXTRQRY (Aib at 2, 13, 20, 30; Lys29 epsilon-amino acylated with C18DA-gGlu-gGlu-gGlu-gGlu-gGlu-gGlu-eLys; C-terminal amide) [Compound 36] | – | 16.9 nM | 8.8 nM | 41.4 nM | 30.1 nM | 95.2 nM
8 | YXEGTFTSDYSIXLEKQAQXAFLRHLINKXTRQRY (Aib at 2, 13, 20, 30; Lys29 epsilon-amino acylated with C18DA-gGlu-gGlu-gGlu-gGlu-gGlu-gGlu-eLys; C-terminal amide) [Compound 37] | 5.8 nM | 9.1 nM | – | 15.5 nM | 11.9 nM | 41.3 nM
9 | YXEGTFTSDYSIXLEKQAQXAFVRHLINKITRQRY (Aib at 2, 13, 20; Lys29 epsilon-amino acylated with C18DA-gGlu-gGlu-gGlu-gGlu-gGlu; C-terminal amide) [Compound 41] | 0.9 nM | 5 nM | 0.3 nM | 7.1 nM | 49.2 nM | 71.3 nM
10 | YXEGTFTSDYSIXLEKQAQXEFVRHLINKLTRQRY (Aib at 2, 13, 20; Lys29 epsilon-amino acylated with C18DA-gGlu-gGlu-gGlu-gGlu-gGlu-AHX; C-terminal amide) [Compound 45] | 0.5 nM | – | 0.3 nM | 19.6 nM | 19.8 nM | 224 nM
11 | Y[Aib]EGTFTSDYSI[Aib]LEKQAQ[Aib]AFVRHLINK([γDab-γGlu-γGlu-γGlu-γGlu-γGlu-γGlu-C20 diacid])[Aib]TRQRY-NH2 [Compound 46] | – | 5.3 nM | 0.8 nM | 7.2 nM | 28.4 nM | 70.5 nM
12 | Y[Aib]EGTFTSDLSI[Aib]LEKQAQ[Aib]AFVRHLINK([γGlu-γGlu-γGlu-γGlu-γGlu-γGlu-C20 diacid])[Aib]TRQRY-NH2 [Compound 51] | 4.5 nM | 16.3 nM | 0.5 nM | 13.8 nM | – | –
